No end group written: not given here.
Experiments:
hCPZ = target: T1, hCPZ (Homo sapiens, UniProt Q66K79); assay: Ki determination, tight-binding inhibition of metallocarboxypeptidase; assay type: biochemical; conditions: NI: No inhibitory activity detected for the [I]0 range from 1 nM to 1 mM
T1 sequence (Q66K79 19-652): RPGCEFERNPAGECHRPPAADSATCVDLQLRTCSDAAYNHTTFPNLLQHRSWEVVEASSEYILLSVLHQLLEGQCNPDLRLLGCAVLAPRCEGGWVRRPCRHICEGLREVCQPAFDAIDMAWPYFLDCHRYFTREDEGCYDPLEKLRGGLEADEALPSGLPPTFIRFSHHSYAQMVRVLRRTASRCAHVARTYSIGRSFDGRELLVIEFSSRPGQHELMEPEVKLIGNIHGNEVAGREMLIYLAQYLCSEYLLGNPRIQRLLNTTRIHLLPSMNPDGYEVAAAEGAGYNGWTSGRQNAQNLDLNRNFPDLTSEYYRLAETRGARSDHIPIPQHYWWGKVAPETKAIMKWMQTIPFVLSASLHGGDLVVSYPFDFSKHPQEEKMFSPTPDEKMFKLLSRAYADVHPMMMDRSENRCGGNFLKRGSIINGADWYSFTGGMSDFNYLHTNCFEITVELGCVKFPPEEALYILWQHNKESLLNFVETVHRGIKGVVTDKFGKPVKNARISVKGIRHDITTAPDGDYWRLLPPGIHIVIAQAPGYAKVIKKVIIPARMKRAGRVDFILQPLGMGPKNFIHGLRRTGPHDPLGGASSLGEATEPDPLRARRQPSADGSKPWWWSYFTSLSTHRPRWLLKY
Experimental: (§1) Inhibitory activities against CPA- and CPB-type forms (bovine and human variants of CPA1, CPA2, CPA4, CPB1, and TAFI) were assayed for all extracts, subject to the experimental conditions that enzyme (E), substrate (S) and inhibitor (I) concentrations as well as the [I]/[E] ratio and preincubation time followed the requirements for tight-binding inhibitor assays. Similar approaches were followed to measure the activities of proteases of different catalytic types, like pepsin, papain, trypsin and subtilisin [45, 46, 47, 48]. All assays were performed in triplicate at 25 °C in a multiplexed manner. For 96-well assays an iEMS spectrophotometer reader/dispenser FM (Labsystems, Finland) was used with a final reaction volume of 250 μL. For cuvette assays, a Cary 400 Bio spectrophotometer (Varian Inc., Palo Alto, CA, USA) spectrophotometer was used with a final reaction volume of 1 ml. The reactions were followed at 5 s intervals for 5 min and recorded as initial velocities. In the protease inhibition assays, mixtures of activity buffer, biological sample and enzyme were preincubated at 25 °C for 10min, before substrate addition. The assay conditions were as follows: for CPA-like enzymes, 7.0nM CPA, 0.1mM AAFP substrate in 20mM Tris-HCl pH 7.5, 500mMNaCl, 1% v/v dimethyl sulfoxide (DMSO), 0.05% w/v BRIJ-35 was used. For CPB-like enzymes, CPB 3.0nM CPB, 0.1mM AAFA substrate and activity buffer of 20 mM Tris-HCl pH [50].
(§2) The Ki values of natural and recombinant NvCI against bCPA1, hCPA1, hCPA2, rat CPA3, hCPA4, hCPB1, bTAFI, hTAFI, hCPD and hCPZ were determined by measuring the enzymatic residual activity (Vi/V0 = a) at different inhibitor concentrations and using a fixed enzyme and substrate concentrations as described above, where vi and v0 are the fraction of enzymatic activity in the presence and absence of inhibitor, respectively, in terms of initial velocities. The determination of Ki values was carried out on equilibrium conditions ([E0]/Ki ≤ 10), using a previously determined preincubation time of 15 min, required to establish enzyme-inhibitor equilibrium. Working temperature was 37 °C. The best estimates of Ki values were obtained by fitting the experimental data to the equation for tight-binding inhibitors by non-linear regression using the GraphPad Prisma 5 software (GraphPad Software, Inc., San Diego, CA, USA) at p < 0.05. The real Ki values against each of these A/B-type MCPs were calculated according to the equation described by Morrison and Copeland [19, 20].

pCPB = target: T2, pCPB (Sus scrofa, UniProt P09955); assay: as above; assay type: biochemical; conditions: tight-binding equation fit, equilibrium conditions; substrate AAFA 0.1mM; preincubation 15 min; 37 °C; means (n = 3) ± SD
T2 sequence (P09955 111-416): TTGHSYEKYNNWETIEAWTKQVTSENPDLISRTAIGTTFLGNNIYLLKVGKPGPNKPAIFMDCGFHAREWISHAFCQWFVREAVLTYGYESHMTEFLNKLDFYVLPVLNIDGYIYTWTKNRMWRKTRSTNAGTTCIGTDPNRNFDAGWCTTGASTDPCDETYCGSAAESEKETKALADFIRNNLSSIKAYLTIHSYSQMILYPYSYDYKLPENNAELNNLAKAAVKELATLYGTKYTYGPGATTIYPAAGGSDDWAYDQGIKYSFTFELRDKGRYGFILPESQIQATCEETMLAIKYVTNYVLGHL
Experimental: as §1, §2

NvCI: 53-residue, three-disulphide proteinaceous metallocarboxypeptidase inhibitor from the marine snail Nerita versicolor; major isoform; UniProt P86912 (FHVPDDRPCINPGRCPLVPDATCTFVCKAADNDFGYECQHVWTFEGQRVGCYA; disulfide (positions not given here); also: three disulphides, pairing not given here; UniProt P86912 1-53, looked up)
Ki (hCPZ): > 1000 µM | Ki (pCPB): 0.00065 ± 1.22e-05 µM
